Experimental data published in patent US20090214583A1 (GOVERNMENT OF THE UNITED STATES OF AMERICA AS REPRESENTED …, published 2009).

Target: HLA-DRβ1*13 (human)
Test: cell-based or functional assay

## KQIINMWQEIGKAMYA [Peptide 53]
  proliferation of KT9 cells: ≤ 2 fold
